Source: FireProtDB (doi:10.1110/ps.8.4.832)

Details: Aspergillus oryzae (strain ATCC 42149 / RIB 40), Thermal, whole UniProt chain shown
[1] = pH 1.1, DSC, glycine-HCl 0.1 M/0.1 M, NaCl 0.1 M, reversible: yes(77%)
[2] = pH 1.5, DSC, glycine-HCl 0.1 M/0.1 M, NaCl 0.1 M, reversible: yes(99%)
[3] = pH 2, DSC, glycine-HCl 0.1 M/0.1 M, NaCl 0.1 M, reversible: yes(80%)
[4] = pH 3, DSC, glycine-HCl 0.1 M/0.1 M, NaCl 0.1 M, reversible: yes(80%)
[5] = pH 7, DSC, None, reversible: yes(26%)

B1: Guanyl-specific ribonuclease T1 wild type, P00651 (protein)
chain: MMYSKLLTLTTLLLPTALALPSLVERACDYTCGSNCYSSSDVSTAQAAGYQLHEDGETVGSNSYPHKYNNYEGFDFSVSSPYYEWPILSSGDVYSGGSPGADRVVFNENNQLAGVITHTGASGNNFVECT
pH 1.1, Absorbance, glycine-HCl 0.1 M/0.1 M, NaCl 0.1 M, reversible: yes(77%)
  Tm: 25.9 °C
[1]
  Tm: 28.2 °C
  unfolding enthalpy (calorimetric): 43.3 kcal/mol
  unfolding enthalpy (van 't Hoff): 55.7 kcal/mol
[2]
  Tm: 32.3 °C
  unfolding enthalpy (calorimetric): 47.6 kcal/mol
  unfolding enthalpy (van 't Hoff): 60.5 kcal/mol
pH 2, Absorbance, glycine-HCl 0.1 M/0.1 M, NaCl 0.1 M, reversible: yes(80%)
  Tm: 33 °C
[3]
  Tm: 37 °C
  unfolding enthalpy (calorimetric): 68.9 kcal/mol
  unfolding enthalpy (van 't Hoff): 66.3 kcal/mol
pH 3, Absorbance, glycine-HCl 0.1 M/0.1 M, NaCl 0.1 M, reversible: yes(80%)
  Tm: 46.1 °C
[4]
  Tm: 50.2 °C
  unfolding enthalpy (calorimetric): 95.7 kcal/mol
  unfolding enthalpy (van 't Hoff): 93.1 kcal/mol
pH 3.5, Absorbance, glycine-HCl 0.1 M/0.1 M, NaCl 0.1 M, reversible: yes(73%)
  Tm: 52.7 °C
pH 7, Absorbance, None, reversible: yes(26%)
  Tm: 62.8 °C
[5]
  Tm: 64.4 °C
  unfolding enthalpy (calorimetric): 123 kcal/mol
  unfolding enthalpy (van 't Hoff): 116 kcal/mol
